In patent US10781452B2, “FLT3 receptor antagonists for the treatment or the prevention of pain disorders” (INSTITUT NATIONAL DE LA SANTE ET DE LA RECHERCHE MEDICALE …, priority 2010, dated 2020):

Target: T1, FLT3 (Mus musculus, UniProt Q00342)
T1 construct: from tissue; host or cells: living mice (sensory neurons / DRG)
T1 sequence (Q00342 28-1000): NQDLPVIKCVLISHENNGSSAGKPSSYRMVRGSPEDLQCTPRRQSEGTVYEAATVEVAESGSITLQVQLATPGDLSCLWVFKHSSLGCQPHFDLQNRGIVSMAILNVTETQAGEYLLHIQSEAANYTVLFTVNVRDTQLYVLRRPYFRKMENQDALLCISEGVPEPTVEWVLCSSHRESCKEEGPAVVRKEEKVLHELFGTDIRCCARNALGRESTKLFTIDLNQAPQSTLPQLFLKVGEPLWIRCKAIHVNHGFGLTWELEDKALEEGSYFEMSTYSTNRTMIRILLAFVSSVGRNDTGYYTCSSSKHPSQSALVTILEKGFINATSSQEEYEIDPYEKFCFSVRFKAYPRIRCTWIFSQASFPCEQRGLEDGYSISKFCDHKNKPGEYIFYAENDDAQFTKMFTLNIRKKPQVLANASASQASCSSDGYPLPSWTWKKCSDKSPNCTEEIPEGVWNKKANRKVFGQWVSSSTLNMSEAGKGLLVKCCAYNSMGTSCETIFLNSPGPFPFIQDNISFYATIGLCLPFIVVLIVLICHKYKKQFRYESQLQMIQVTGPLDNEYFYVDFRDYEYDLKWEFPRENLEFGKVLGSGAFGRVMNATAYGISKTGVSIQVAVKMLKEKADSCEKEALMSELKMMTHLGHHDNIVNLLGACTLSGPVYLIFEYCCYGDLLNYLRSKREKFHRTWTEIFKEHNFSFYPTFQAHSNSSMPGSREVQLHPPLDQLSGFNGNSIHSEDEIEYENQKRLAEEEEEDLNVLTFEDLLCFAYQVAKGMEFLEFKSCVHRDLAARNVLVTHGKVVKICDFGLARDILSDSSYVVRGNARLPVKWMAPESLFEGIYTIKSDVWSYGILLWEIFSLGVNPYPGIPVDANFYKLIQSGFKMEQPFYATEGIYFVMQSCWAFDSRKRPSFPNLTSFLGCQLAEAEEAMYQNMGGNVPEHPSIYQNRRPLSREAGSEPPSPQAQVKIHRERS
Assay: Chronic Constriction Injury (CCI) mouse model, mechanical hypersensitivity (0.6 g von Frey filament)
Format: in vivo
Method: The efficacy of the antibody A3 to reverse neuropathic pain was assessed in the Chronic Constriction Injury (CCI) mouse model of persistent peripheral neuropathic pain, consisting in three chronic ligatures tied loosely around the sciatic nerve (Bennett, G. J. & Xie, Y. K. A peripheral mononeuropathy in rat that produces disorders of pain sensation like those seen in man. Pain, 1988, 33:87-107). Neuropathic pain symptoms, such as mechanical hypersensitivity, develop within 10 days post-injury.
CCI model. The Chronic Constriction Injury (CCI) model was adapted for mice (Costa, B., Comelli, F., Bettoni, I., Colleoni, M. & Giagnoni, G. The endogenous fatty acid amide, palmitoylethanolamide, has anti-allodynic and anti-hyperalgesic effects in a murine model of neuropathic pain: involvement of CB(1), TRPV1 and PPARgamma receptors and neurotrophic factors. Pain, 2008, 139:541-550). Briefly, skin was incised and the sciatic nerve was exposed unilaterally at the […] by dissecting through the biceps femoris. […]
Mechanical nociception assay. […] The procedure was applied 10 times and the percentage of positive responses was calculated.
Data and statistical analyses. Data are expressed as the mean ±S.E.M. Statistical significance was determined by two-way analysis of variance (ANOVA) for repeated measures, over time. […]

B1: A3 antibody: human monoclonal antibody against FLT3; VH SEQ ID NO:1, VL SEQ ID NO:2 (antibody, V domains shown)
VH: EVQLVESGGSLVKPGGSLRLSCAASGFTFSNSYMNWVRQAPGKGLEWISDISGSSRDIDYADFVKGRFTISRDNATNSLYLQMNSLRAEDTAVYYCVRSGNSGMDVWGRGTLVTVSS
VL: QSVLTQPASVSGSPGQSITISCAGTSSDVGGGYYVSWYQQHPGKAPKLMIYYDSYRPSGVSNRFSGSKSGNTASLTISGLQAEDEADYYCSSYTNNSTRVFGGGTKLEIK
modifications: Synthetic VH domain of A3; Synthetic VL region of A3
mechanical sensitivity (percentage of withdrawal) after CCI injury (100 μg/animal intraperitoneal, 9 days after CCI, vs control irrelevant antibody): completely reduce mechanical sensitivity to the scores obtained before CCI injury | duration of inhibition of CCI-induced pain hypersensitivity (single injection, 100 μg/animal): 48 h
